T1: human FcγRIIb (human, UniProt P31994 46-217)
T1 construct: bought, His-tagged, on Ni2+ Acceptor beads; also called FcγRIIb/c (CD32b/c)
T1 sequence (looked up): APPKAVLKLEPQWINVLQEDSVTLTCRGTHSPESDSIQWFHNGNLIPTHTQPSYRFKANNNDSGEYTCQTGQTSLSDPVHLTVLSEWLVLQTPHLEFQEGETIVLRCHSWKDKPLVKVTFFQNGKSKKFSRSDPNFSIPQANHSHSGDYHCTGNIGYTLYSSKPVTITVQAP

T2: human FcγRIIa (CD32a) (human, UniProt P12318 36-218)
T2 construct: bought, His-tagged, on Ni2+ Acceptor beads
T2 sequence (looked up): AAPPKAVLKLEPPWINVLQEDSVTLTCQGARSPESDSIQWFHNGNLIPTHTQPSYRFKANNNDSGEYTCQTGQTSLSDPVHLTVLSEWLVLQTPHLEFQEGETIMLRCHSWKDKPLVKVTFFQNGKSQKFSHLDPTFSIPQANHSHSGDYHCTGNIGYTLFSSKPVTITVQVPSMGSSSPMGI

B1: RCDB5 (bispecific antibody, human IgG4 S228P, kappa, lambda, F234A L235A)
heavy 1: not shown
light 1: not shown
heavy 2: EVQLVESGGGLVQPGGSLRLSCAASGFTFNTYAMNWVRQAPGKGLEWVARIRSKYNNYATYYAASVKGRFTISRDDSKNSLYLQMNSLKTEDTAVYYCARHGNFGNSYVSWFAYWGQGTLVTVSSASTKGPSVFPLAPCSRSTSESTAALGCLVKDYFPEPVTVSWNSGALTSGVHTFPAVLQSSGLYSLSSVVTVPSSSLGTKTYTCNVDHKPSNTKVDKRVESKYGPPCPPCPAPEAAGGPSVFLFPPKPKDTLMISRTPEVTCVVVDVSQEDPEVQFNWYVDGVEVHNAKTKPREEQFNSTYRVVSVLTVLHQDWLNGKEYKCKVSNKGLPSSIEKTISKAKGQPREPQVYTLPPSQEEMTKNQVSLTCLVKGFYPSDIAVEWESNGQPENNYKTTPPVLDSDGSFLLYSKLTVDKSRWQEGNVFSCSVMHEALHNHYTQKSLSLSLGK
light 2: QTVVTQEPSLTVSPGGTVTLTCRSSTGAVTTSNYANWVQQKPGQAPRGLIGGTNKRAPGTPARFSGSLLGGKAALTLSGVQPEDEAEYYCALWYSNLWVFGGGTKLTVLGQPKAAPSVTLFPPSSEELQANKATLVCLISDFYPGAVTVAWKADSSPVKAGVETTTPSKQSNNKYAASSYLSLTPEQWKSHRSYSCQVTHEGSTVEKTVAPTECS
notes: also called ROR1×CD3 bispecific antibody
B2: RCDB13 (bispecific antibody, human IgG4 S228P, kappa, lambda, F234A L235A)
heavy 1: not shown
light 1: not shown
heavy 2: B1 heavy 2
light 2: B1 light 2
notes: DuoBody IgG4 PAA, ROR1 arm + CD3B219 arm; also called RR1B78 × CD3B219
B3: RCDB11 (bispecific antibody, human IgG4 S228P, kappa, lambda, F234A L235A)
heavy 1: not shown
light 1: not shown
heavy 2: B1 heavy 2
light 2: B1 light 2
notes: DuoBody IgG4 PAA, ROR1 arm + CD3B219 arm; also called RR1B76 × CD3B219
B4: RCDB7 (bispecific antibody, human IgG4 S228P, kappa, lambda, F234A L235A)
heavy 1: not shown
light 1: not shown
heavy 2: B1 heavy 2
light 2: B1 light 2
notes: DuoBody IgG4 PAA, ROR1 arm + CD3B219 arm; also called RR1B70 × CD3B219
B5: RCDB17 (bispecific antibody, human IgG4 S228P, kappa, lambda, F234A L235A)
heavy 1: not shown
light 1: not shown
heavy 2: B1 heavy 2
light 2: B1 light 2
notes: DuoBody IgG4 PAA, ROR1 arm + CD3B219 arm; also called RR1B85 × CD3B219
B6: RCDB9 (bispecific antibody, human IgG4 S228P, kappa, lambda, F234A L235A)
heavy 1: not shown
light 1: not shown
heavy 2: B1 heavy 2
light 2: B1 light 2
notes: DuoBody IgG4 PAA, ROR1 arm + CD3B219 arm; also called RR1B72 × CD3B219
B7: RCDB5 (bispecific antibody, human IgG4 S228P, kappa, lambda, F234A L235A)
heavy 1: not shown
light 1: not shown
heavy 2: B1 heavy 2
light 2: B1 light 2
notes: DuoBody IgG4 PAA, ROR1 arm + CD3B219 arm
B8: RCDB4 (bispecific antibody, human IgG4 S228P, kappa, lambda, F234A L235A)
heavy 1: not shown
light 1: not shown
heavy 2: B1 heavy 2
light 2: B1 light 2
notes: DuoBody IgG4 PAA, ROR1 arm + CD3B219 arm; also called RR1B66 × CD3B219
B9: RCDB3 (bispecific antibody, human IgG4 S228P, kappa, lambda, F234A L235A)
heavy 1: not shown
light 1: not shown
heavy 2: B1 heavy 2
light 2: B1 light 2
notes: DuoBody IgG4 PAA, ROR1 arm + CD3B219 arm; also called RR1B65 × CD3B219
B10: RCDB15 (bispecific antibody, human IgG4 S228P, kappa, lambda, F234A L235A)
heavy 1: not shown
light 1: not shown
heavy 2: B1 heavy 2
light 2: B1 light 2
notes: DuoBody IgG4 PAA, ROR1 arm + CD3B219 arm; also called RR1B83 × CD3B219
B11: RCDB16 (bispecific antibody, human IgG4 S228P, kappa, lambda, F234A L235A)
heavy 1: not shown
light 1: not shown
heavy 2: B1 heavy 2
light 2: B1 light 2
notes: DuoBody IgG4 PAA, ROR1 arm + CD3B219 arm; also called RR1B84 × CD3B219
B12: RCDB6 (bispecific antibody, human IgG4 S228P, kappa, lambda, F234A L235A)
heavy 1: not shown
light 1: not shown
heavy 2: B1 heavy 2
light 2: B1 light 2
notes: as for B7
B13: RCDB12 (bispecific antibody, human IgG4 S228P, kappa, lambda, F234A L235A)
heavy 1: not shown
light 1: not shown
heavy 2: B1 heavy 2
light 2: B1 light 2
notes: DuoBody IgG4 PAA, ROR1 arm + CD3B219 arm; also called RR1B77 × CD3B219
B14: RCDB19 (bispecific antibody, human IgG4 S228P, kappa, lambda, F234A L235A)
heavy 1: not shown
light 1: not shown
heavy 2: B1 heavy 2
light 2: B1 light 2
notes: DuoBody IgG4 PAA, ROR1 arm + CD3B219 arm; also called RR1B88 × CD3B219
B15: RCDB18 (bispecific antibody, human IgG4 S228P, kappa, lambda, F234A L235A)
heavy 1: not shown
light 1: not shown
heavy 2: B1 heavy 2
light 2: B1 light 2
notes: DuoBody IgG4 PAA, ROR1 arm + CD3B219 arm; also called RR1B86 × CD3B219
B16: RCDB8 (bispecific antibody, human IgG4 S228P, kappa, lambda, F234A L235A)
heavy 1: not shown
light 1: DIQMTQSPSSLSASVGDRVTITCRASQSIDRHLNWYQQKPGKAPKLLIYKASSLQSGVPSRFSGSGSGTDFTLTISSLQPEDFATYYCQQPHTFPLTFGQGTKVEIKRTVAAPSVFIFPPSDEQLKSGTASVVCLLNNFYPREAKVQWKVDNALQSGNSQESVTEQDSKDSTYSLSSTLTLSKADYEKHKVYACEVTHQGLSSPVTKSFNRGEC
heavy 2: B1 heavy 2
light 2: B1 light 2
notes: DuoBody IgG4 PAA, ROR1 arm + CD3B219 arm; also called RR1B71 × CD3B219
B17: RCDB14 (bispecific antibody, human IgG4 S228P, kappa, lambda, F234A L235A)
heavy 1: not shown
light 1: not shown
heavy 2: B1 heavy 2
light 2: B1 light 2
notes: DuoBody IgG4 PAA, ROR1 arm + CD3B219 arm; also called RR1B82 × CD3B219
B18: RR1B78 (antibody, human IgG4 S228P, kappa, F234A L235A, V domains shown)
VH: EVQLVQSGAEVKKPGESLKISCKGSGYSFTSYWIGWVRQMPGKGLEWMGIIYPGDSDTRYSPSFQGQVTISADKSISTAYLQWSSLKASDTAMYYCARDVGRWAPGGFLDYWGQGTLVTVSS
VL: not shown
notes: huIgG4 PAA/kappa

The first assay deals with T3, human FcγRI (CD64) (human, UniProt P12314 16-288).
T3 construct: bought, His-tagged, on Ni2+ Acceptor beads; also called FcγR1
Briefly: competition AlphaScreen. Background: Alpha assays give light when donor and acceptor beads are brought close together.
For the molecule B1, the binding result was “binds”.

The target in the next assay is T1, human FcγRIIb. Briefly: competition AlphaScreen.
Take B1: the binding result is “binds”.

In a further assay the target is T4, human FcγRIIIa (CD16a) (human, UniProt P08637 17-208).
T4 construct: bought, His-tagged, on Ni2+ Acceptor beads
Kind of assay: competition AlphaScreen.
Consider B1, for which the binding result is “binds”.

A further assay concerns the target T5, human ROR1 (Receptor Tyrosine Kinase-Like Orphan Receptor 1) on cells (human, UniProt Q01973 30-937). Briefly: cell-based or functional assay.
With B2, the “Killing EC50” value was found to be 0.539 nM.
Same read-out and setting: the value for B3 was 0.247 nM; that for B4 was 16.9 nM.
Same read-out and setting: next, B5: 5.17 nM.
The same measure, in the same setting: the value for B6 was 3.21 nM; that for B7 was 0.454 nM; that for B8 was 0.677 nM.
B9: the “Killing EC50” value came out at 2.48 nM.
Take B10: the “Killing EC50” value is 1.28 nM.
The same measure, in the same setting: the value for B11 was 2.91 nM; that for B12 was 0.437 nM.

For the next assay, the target named is T6, human ROR1 (Receptor Tyrosine Kinase-Like Orphan Receptor 1) on cells (human, UniProt Q01973 30-937).
T6 construct: whole, on cells; endogenous on SKMES-1, MDA-MB231, H358, HCC827 and MCL lines, or on HEK293 cells transfected with human ROR1 (pDR25226); the cell line is named under assay; also called cell-surface ROR1; hu ROR1
Briefly: MSD-CAT, cells expressing ROR1.
Turning to B1, the Kd is approximately 0.3 nM.

For the next assay, the target named is T5, human ROR1 (Receptor Tyrosine …). Kind of assay: flow cytometry, HCC827 cells. A general note: Flow cytometry measures light scatter and fluorescence of single cells or particles in a stream.
In turn, B2 came in with an EC50 of 1.64 nM.
Turning to B3, the EC50 is 2.36 nM.
Same read-out and setting: the value for B4 was 1 nM; that for B5 was 4.72 nM.
Still for that read-out and setting: the value for B6 was 16.9 nM; that for B13 was 1.25 nM.
Still for that read-out and setting: the value for B14 was 16.2 nM; that for B7 was 3.74 nM.
Consider B15, for which the half-maximal effective concentration (EC50) came to 5.07 nM.
On the same count and under the same terms, next, B8: 9.14 nM.
On the same count and under the same terms, next, B9: 3.77 nM.
On the same count and under the same terms, next, B10: 6.34 nM; B16: 10.6 nM.
The molecule B17 returned an EC50 of 6.21 nM.
Same read-out and setting: the value for B11 was 10.4 nM; that for B12 was 6.25 nM.

The next assay shares this target. Briefly: MSD-CAT, HEK293 cells expressing human ROR1.
In turn, B2 came in with a dissociation constant (Kd) of 0.254 nM.
On the same count and under the same terms, the value for B3 was 0.382 nM; that for B6 was 2.27 nM.
Still for that read-out and setting: next, B13: 0.236 nM; B7: 0.331 nM; B12: 0.648 nM.

Another assay addresses T6, human ROR1 (Receptor Tyrosine …). Kind of assay: detection of control ROR1+ cell lines spiked into fixed whole blood.
In the case of B18, the binding result is “binds”.

A further assay has the same target. Briefly: MSD-CAT; 1000 pM antibody equilibrated with serially diluted HEK293 cells overexpressing human ROR1.
On to B1, for which the “IC50 (read off the curve)” value was approximately 1 nM.

A further assay has the same target. Kind of assay: MSD-CAT; 200, 40 or 8 pM antibody equilibrated with serially diluted HEK293 cells overexpressing human ROR1.
As for B1, the “IC50 (read off the curve)” value was approximately 0.4 nM.

Another assay addresses T7, human FcRn (FCGRT/B2M Heterodimer) (human, UniProt P55899 24-297; P61769 21-119).
T7 construct: bought heterodimer, His-tagged
Kind of assay: AlphaScreen competition: unlabeled competitor antibody against biotinylated B21M WT IgG1 for His-tagged human FcRn; 1x PBS, 0.05% BSA, 0.01% Tween-20, pH 6.0.
For the molecule B1, the binding result was “binds”.

In another assay the target is T2, human FcγRIIa (CD32a). Kind of assay: AlphaScreen competition: unlabeled competitor antibody against biotinylated B21M WT IgG1 for His-tagged human FcγRIIa; 1x PBS, 0.05% BSA, 0.01% Tween-20, pH 7.2.
For the molecule B1, the binding result is recorded as “binds”.

As a reminder, the Kd is a measure of binding affinity in units of concentration. A higher Kd goes with lower affinity. As a reminder, the EC50 is the concentration that produces a half-maximal response. A low value points to greater potency.

These data come from patent US20170210799A1 (Janssen / Centocor, published 2017).
